Measured values reported in paper PMC7749166 (Communications Biology, 2020).
Residue numbers refer to the chain shown, from its start.

Experiments:
[1] = system: C5aR extracellular side; assay: AFM affinity imaging with C5a tip: specificity and receptor height; type: binding, human; conditions: free C5a in solution
Procedure: (§1) The reconstituted C5aR sample solution (either wt-C5aR or mutants) was 20-fold diluted in fusion buffer solution (20 mM HEPES, 300 mM NaCl, and 25 mM MgCl2) and adsorbed on freshly cleaved mica for 15 min. After rinsing with imaging buffer (20 mM HEPES and 300 mM NaCl) the sample was transferred to the AFM.
Rectangular Si3N4 AFM cantilevers with silicon tips (BioLever mini, Bruker) were first cleaned with chloroform for 10 min, rinsed with ethanol, N2 dried, and then cleaned for 15 min in an ultraviolet radiation and ozone cleaner (UV-O, Jetlight, CA, USA). For the aminofunctionalization, the cantilevers were immersed in an ethanolamine solution (3.3 g ethanolamine in 6.6 ml DMSO) overnight and then rinsed in DMSO (3 × 1 min) and ethanol (3 × 1 min), followed by N2 drying. This was followed by the N-hydroxysuccinimide (NHS)-PEG27-acetal linker attachment. […]
(§2) In FD-based AFM measurements, the AFM cantilever is oscillated in a sinusoidal manner well below its resonance frequency, while the sample surface is contoured pixel-by-pixel. For each approach–retraction cycle of the oscillating cantilever, a force–distance curve is recorded. […] Adhesion maps were recorded using a scan rate of 0.2 Hz and 256 × 256 pixels. […]
Several control experiments were designed to ensure that the measured interactions were indeed specific and the functionalization of the AFM tip successful. […]

[2] = target: T1, C5aR^D282A (Homo sapiens, UniProt P21730, D282A); assay: FD-/FV-based AFM dynamic force spectroscopy vs D282A mutant; type: binding
T1 construct: Flag (N); His8 (C); made in house; host or cells: HEK-293S cells (BacMam baculovirus)
T1 sequence (P21730 1-350 D282A): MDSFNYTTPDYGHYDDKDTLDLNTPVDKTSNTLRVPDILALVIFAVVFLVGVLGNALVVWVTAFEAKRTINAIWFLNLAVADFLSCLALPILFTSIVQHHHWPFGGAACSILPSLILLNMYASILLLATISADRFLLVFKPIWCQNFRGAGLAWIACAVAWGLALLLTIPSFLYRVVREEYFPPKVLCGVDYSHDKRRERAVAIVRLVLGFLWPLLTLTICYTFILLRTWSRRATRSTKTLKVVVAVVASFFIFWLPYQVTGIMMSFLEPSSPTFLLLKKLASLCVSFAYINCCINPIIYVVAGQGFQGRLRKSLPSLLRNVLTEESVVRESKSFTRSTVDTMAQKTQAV
Procedure: as §1
(§3) Rectangular Si3N4 AFM cantilevers with silicon tips (BioLever mini, Bruker) were first cleaned with chloroform for 10 min, rinsed with ethanol, N2 dried, and then cleaned for 15 min in an ultraviolet radiation and ozone cleaner (UV-O, Jetlight, CA, USA). For the aminofunctionalization, the cantilevers were immersed in an ethanolamine solution (3.3 g ethanolamine in 6.6 ml DMSO) overnight and then rinsed in DMSO (3 × 1 min) and ethanol (3 × 1 min), followed by N2 drying. This was followed by the N-hydroxysuccinimide (NHS)-PEG27-acetal linker attachment. A 1 mg portion of the NHS-PEG27-acetal linker (JKU, Linz, Austria) was diluted in 0.5 ml chloroform with 30 µl triethylamine and the cantilevers were immersed in this solution for 2 h. After three rinsing steps of 10 min in chloroform and N2 drying, the cantilevers were immersed in a 1% citric acid solution for 10 min, rinsed with pure water (3 × 5 min), and dried with N2 once more. tris-NTA-derivatized AFM cantilevers were obtained by pipetting 100 µl of a 100 µM tris-N-nitrilotriacetic amine trifluoroacetate (Toronto Research Chemicals, Canada) (tris-NTA) solution onto the cantilevers, followed by the addition of 2 μl of a freshly prepared 1 M NaCNBH3 solution. The cantilevers were incubated for 1 h, then 5 μl of a 1 M ethanolamine solution pH 8.0 was added for 10 min to quench the reaction. tris-NTA cantilevers were further used to obtain C5a-derivatized tips. For this purpose, 100 μl of a 1 μM C5a protein solution was premixed with 5 μl NiCl2 5 mM and the mixture was pipetted onto the tris-NTA cantilevers. After 2 h of incubation time, the cantilevers were washed in HEPES buffer 3 × 5 min.
(§4) (JKU, Linz, Austria) dissolved in 0.5 ml of chloroform with 30 μl of triethylamine, then washed with chloroform and dried with N2. […] After 3 h of reaction, cantilevers were washed with PBS 3 × 5 min.
AFM experiments were performed with a Multimode 8 AFM equipped with a Nanoscope V controller (Bruker, Santa Barbara, CA, USA) operated in “PeakForce Tapping QNM mode”. All measurements were carried out in imaging buffer at room temperature (≈24 °C). […]
as §2

[3] = target: T2, human C5aR (C5aR^WT) (Homo sapiens, UniProt P21730); assay: FD-/FV-based AFM dynamic force spectroscopy (FNdY model) of ligand-functionalized tip vs wild-type C5aR; type: binding; conditions: FNdY fit
T2 construct: Flag (N); made in house; host or cells: HEK-293S GnTI- cells (BacMam baculovirus)
T2 sequence (P21730 1-350): T1 sequence (P21730 1-350 D282A) with A282D
Procedure: as §1, §3, §4
(§5) AFM experiments were performed with a Multimode 8 AFM equipped with a Nanoscope V controller (Bruker, Santa Barbara, CA, USA) operated in “PeakForce Tapping QNM mode”. All measurements were carried out in imaging buffer at room temperature (≈24 °C). For the high-resolution characterization of C5aR topographical features, triangular Si3N4 cantilevers (Scanasyst-Fluid+, Bruker) with a sharpened tetrahedral silicon tip of ≈2 nm radius, nominal spring constants of 0.35 N m^−1, and resonance frequency in liquid of ≈75 kHz were used. Multiparametric FD-based AFM measurements with derivatized tips were carried out using BioLever mini cantilevers (Bruker, Santa Barbara) having nominal spring constants of 0.1 N m^−1 and resonance frequency in liquid of ≈25 kHz. The spring constant was calibrated at the end of each experiment for all cantilevers used in this study using the thermal noise method.
(§6) In FD-based AFM measurements, the AFM cantilever is oscillated in a sinusoidal manner well below its resonance frequency, while the sample surface is contoured pixel-by-pixel. For each approach–retraction cycle of the oscillating cantilever, a force–distance curve is recorded. Multiparametric FD-based AFM height, Young’s modulus, and adhesion maps are then obtained from a pixel-by-pixel reconstruction of the acquired data. Overview FD-based AFM maps were acquired by scanning the sample at 1 Hz and a resolution of 512 × 512 pixels, using a force setpoint of ≈150 pN, a 2 kHz oscillation frequency, and a peak-to-peak oscillation amplitude of 100 nm. Adhesion maps were recorded using a scan rate of 0.2 Hz and 256 × 256 pixels. The functionalized AFM cantilever was oscillated at 0.25 kHz with peak-to-peak oscillation amplitudes of 100 nm.

[4] = system: human C5aR (C5aR^WT); assay: as above; type: binding; conditions: sum of C5aR + PMX53 and C5aR∆Tyr values
Procedure: as §1, §3, §4, §5, §6

[5] = FNdY fit, ± s.e.m., ligand-derivatized AFM tip, 20 mM HEPES, 300 mM NaCl, ≈24 °C
[6] = C5a tip vs C5aR^WT incubated with PMX53 (effector site blocked; probes binding site), ± s.e.m.

B1: C5a: C5a, a large 74-amino acid glycoprotein; endogenous ligand of C5aR (His6-tag at N-terminal end for AFM tips) (protein)
chain: TLQKKIEEIAAKYKHSVVKKCCYDGACVNNDETCEQRAARISLGPRCIKAFTECCVVASQLRANISHKDMQLGR
modifications: left off: His6, N-terminal, kept
binding probability of C5a tip after blocking with free C5a [1]: significantly reduces the binding probability | drop of the ΔGbu vs wild type ([2]; AFM, D282A vs WT): four | binding equilibrium free energy ΔGbu [2, 5]: -3.4 ± 0.7 kcal/mol | equilibrium force Feq [2, 5]: 27 ± 3 pN | residence time τ0.5 ([2]; FNdY fit, ligand-derivatized AFM tip, 20 mM HEPES, 300 mM NaCl, ≈24 °C): 0.08 ms | residence time τ0.5 ([3]; C5a tip vs C5aR^WT incubated with PMX53 (effector site blocked; probes binding site)): 0.2 ms | equilibrium force Feq [3, 6]: 29 ± 4 pN | free energy ΔGbu [3, 6]: -3.9 ± 1.8 kcal/mol | binding equilibrium free energy ΔGbu ([3]; ± s.e.m., ligand-derivatized AFM tip, 20 mM HEPES, 300 mM NaCl, ≈24 °C): -13.6 ± 4.1 kcal/mol | equilibrium force Feq ([3]; ± s.e.m., ligand-derivatized AFM tip, C5aR in DOPC/CHS liposomes on mica, 20 mM HEPES, 300 mM NaCl, ≈24 °C): 46 ± 7 pN | residence time τ0.5 ([3]; ligand-derivatized AFM tip, 20 mM HEPES, 300 mM NaCl, ≈24 °C): 0.6 ms | sum of binding free energy of both sites measured individually, ΔGbu (binding site+effector site) [4]: ~-8.6 ± 2.3 kcal/mol
